In patent US20100204147A1 (REGENERX BIOPHARMACEUTICALS, published 2010):

Tests used:
Experiment in all cases: ELISA, immobilized fragment, without factor XIII or with non-activated factor XIII
[1] = molecular target: T1, Recombinant truncated αC-fragment, COOH-terminal half (residues Aα392-610) (human, UniProt P02671 411-629)
T1 construct: probably the mature Aα chain; also called Aα392-610 sub-fragment; Aα392-610 fragment
T1 sequence (looked up): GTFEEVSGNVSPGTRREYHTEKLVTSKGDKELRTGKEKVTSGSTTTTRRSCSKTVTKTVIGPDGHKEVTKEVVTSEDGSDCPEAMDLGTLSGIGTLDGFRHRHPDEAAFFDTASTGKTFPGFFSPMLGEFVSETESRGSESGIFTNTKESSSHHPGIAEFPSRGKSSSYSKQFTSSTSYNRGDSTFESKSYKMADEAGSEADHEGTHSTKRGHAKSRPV
Method: (§1) The interaction between thymosin β4 and fibrin(ogen) and its fragments in the presence or absence of FXIIIa was studies by ELISA using plastic microliter plates. Wells of microliter plates were coated overnight at −4° C. with fibrinogen and fibrin at 10 μg/mL or with the recombinant fragments of 20 μg/ml, all in 0.1 M NaHCO₃ buffer, pH 8.3. Fibrin was made by addition to the wells of a mixture containing 10 μg/mL fibrinogen 1 NIH u/ml thrombin and 400 u/ml aprotinin, followed by overnight incubation at +4° C. The wells were then blocked by incubation with Super Blocker (Pierce) at 37° C. for 1 h. Following washing with TBS containing 0.05% Tween-20 (TBS-Tween), the indicated concentrations of thymosin β4, FXIII, FXIIIa(Thr) and FXIIIa(Ca) were added to the wells and incubated for 2-2.5 h at 37° C. Bound (incorporated) thymosin β4 was detected by the reaction with rabbit anti-thymosin β4 serum and peroxidase-conjugated anti-rabbit IgG. A TMB Microwell Peroxidase Substrase was added to the wells, and the incorporated thymosin β4 was measured spectrophotometrically at 450 nm.
(§2) The above observations were confirmed by ELISA. […] It should be noted that the incorporation of the γ-module was almost twice lower than that of the αC-domain variants at all concentration studied. When thymosin β4 was incubated with the same immobilized species in the presence of non-activated factor XIII or without it, the incorporation was very low in all cases.

[2] = molecular target: T2, Recombinant truncated αC-fragment, NH2-terminal half (residues Aα221-391) (human, UniProt P02671 240-410)
T2 construct: probably the mature Aα chain
T2 sequence (looked up): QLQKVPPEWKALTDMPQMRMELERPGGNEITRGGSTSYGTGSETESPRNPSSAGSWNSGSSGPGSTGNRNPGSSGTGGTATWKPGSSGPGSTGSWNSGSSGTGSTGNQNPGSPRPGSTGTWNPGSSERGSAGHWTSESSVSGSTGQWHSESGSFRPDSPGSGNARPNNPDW
Method: as §1, §2

[3] = molecular target: T3, Recombinant αC-fragment corresponding to the human fibrinogen αC-domain (residues Aα221-610) (human, UniProt P02671 240-629)
T3 construct: By fibrinogen convention they are probably mature Aα chain numbering, without the signal peptide
T3 sequence (looked up): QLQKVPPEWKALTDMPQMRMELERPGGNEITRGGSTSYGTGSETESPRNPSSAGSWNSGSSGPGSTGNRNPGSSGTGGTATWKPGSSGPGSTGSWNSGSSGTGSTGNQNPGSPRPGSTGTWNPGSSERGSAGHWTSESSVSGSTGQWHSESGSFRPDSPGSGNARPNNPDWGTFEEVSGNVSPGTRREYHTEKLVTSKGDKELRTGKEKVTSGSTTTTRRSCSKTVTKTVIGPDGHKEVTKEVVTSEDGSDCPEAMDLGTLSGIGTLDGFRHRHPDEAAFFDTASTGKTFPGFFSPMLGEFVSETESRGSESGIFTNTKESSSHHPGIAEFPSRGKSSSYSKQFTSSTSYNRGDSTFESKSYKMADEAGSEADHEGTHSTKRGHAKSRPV
Method: as §1, §2

Measured: binding result

SDKPDMAEIEKFDKSKLKKTETQEKNPLPSKETIEQEKQAGES (peptide, UniProt P62328 2-44, looked up, not fully specified, mature; also called Tβ4) [Synthetic thymosin β4]
no binding: all assays above
